According to PMC2726290, “Decoding of Methylated Histone H3 Tail by the Pygo-BCL9 Wnt Signaling Complex” (Molecular Cell, 2008):

Assays:
Assay in all cases: ITC; protein dialysed into 100 mM NaCl, 25 mM Tris-HCl (pH 8.0), 10 uM ZnCl2, 2 mM beta-mercaptoethanol; histone peptides with free PHD or PHD-HD1 complex; one-site model
[1] = target: dPHD-HD1 complex (Drosophila Pygo PHD 747-808 with Lgs HD1 316-350) (Drosophila) (UniProt Q9V9W8)
[2] = target: hPHD-HD1 complex (hPygo1 PHD 333-402 with hBCL9 HD1) (human) (UniProt Q9Y3Y4)
hPHD-HD1 complex (hPygo1 PHD 333-402 with hBCL9 HD1) (human), sequence (Q9Y3Y4 333-402, chain 1 of 2): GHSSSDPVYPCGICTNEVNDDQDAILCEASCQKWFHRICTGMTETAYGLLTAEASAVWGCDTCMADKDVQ
hPHD-HD1 complex (hPygo1 PHD 333-402 with hBCL9 HD1) (human), sequence (O00512 177-205, chain 2 of 2, further chain): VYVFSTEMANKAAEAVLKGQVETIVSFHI

[3] = target: hPygo1 PHD finger (amino acids 333-402), free (human) (UniProt Q9Y3Y4)
hPygo1 PHD finger (amino acids 333-402), free (human), sequence (Q9Y3Y4 333-402): as the sequence (Q9Y3Y4 333-402, chain 1 of 2) above

dPHD-HD1 complex (Drosophila Pygo PHD 747-808 with Lgs HD1 316-350) (Drosophila), sequence (Q9V9W8 747-808, chain 1 of 2): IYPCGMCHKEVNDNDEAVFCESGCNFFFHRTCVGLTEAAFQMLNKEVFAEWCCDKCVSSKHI
dPHD-HD1 complex (Drosophila Pygo PHD 747-808 with Lgs HD1 316-350) (Drosophila), sequence (Q961D9 316-350, chain 2 of 2, further chain): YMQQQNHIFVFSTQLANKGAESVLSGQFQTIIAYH

| Substance | Kd [1] [µM] | Kd [2] [µM] | Kd [3] [µM] |
| --- | --- | --- | --- |
| H3K4me2 15-mer histone H3 tail peptide (from UniProt P68431 2-16) | 13 | 0.9 | 2.4 |
| H3K4me3 15-mer histone H3 tail peptide (from UniProt P68431 2-16) | 23 |  |  |
| H3K4me1 15-mer histone H3 tail peptide (from UniProt P68431 2-16) | 22 | 2.9 | 9 |
